Assay results taken from PMC12804668.

Target: Ec78 PtuA ATPase (E. coli ECONIH5)
Assay: cryo-EM structure

stoichiometry N: 4
Substance: Ec78 PtuA ATPase (enzyme)
